# Tested on: K4 kissing-loop RNA reporter
# Experiment: apparent KD of K4 kissing-loop reporter; higher = weaker reporter binding
# Conditions: Eterna round: R107
# Protocol: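 RNA-MaP round R107: designed RNA switches with theophylline, tryptophan, arginine or FMN aptamers are transcribed on-chip within common flanks. They are titrated with a labelled K4 kissing-loop RNA reporter in RNA-MaP buffer (100 mM Tris pH 7.5, 80 mM KCl, 4 mM MgCl2), without ligand or with the indicated ligand. Median apparent KD per design.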
# [1] = input ligand: theophylline 20 uM
# [2] = input ligand: tryptophan 2.4 mM
# 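Note: bound reporter read as fluorescence of individual clusters on recovered sequencing chips by microscopy, with normalized cluster intensities fitted with a binding model.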
Sequence,apparent KD of K4 kissing-loop reporter (input ligand: FMN 200 uM),apparent KD of K4 kissing-loop reporter (input ligand: arginine 13.2 mM),apparent KD of K4 kissing-loop reporter (input ligand: none),apparent KD of K4 kissing-loop reporter [1],apparent KD of K4 kissing-loop reporter [2]
GCGAUUCAGUGAUGUUGGAAAUACAGGGAUACCAGCCGAAAAUAAGGCCCUUGGCAGCUUAAUAGGAAAGAACUAAGAAAGACGC [Theophylline A Same State; Euphoria Solution 3],556 nM,603 nM,671 nM,755 nM,460 nM
GAAGGUCAAAGACCUUCGUGCACAACUGAUACCAGUCGCGAAAGCGACCCUUGGCAGCAGGGCAGUGAUGUUGCCAGUGCACAAA [Omei KL Theo A SS A v3],157 nM,166 nM,167 nM,124 nM,169 nM
GGUCCGGGCUCGGCCGCCACUCCCUCCUGCCGUAAGGUGGGAUACCGAGUGAUGUUCGGUUGGAGGAGGACCGGGAGCCCGGACC [#2 Exclusion - Tryptophan B Attempt #15 (HarryS)],165 nM,113 nM,122 nM,105 nM,107 nM
UGACUGGAUGGAAGGAGCGCUAAACUCCUAGUGAUGUUAGGGAUACGAGACAAAGUCUUGAGGCAGGUAGGUCGCCAUCUAGUCU [FiskerMod 11 - Jieux - Same State - Arginine B],162 nM,130 nM,147 nM,157 nM,138 nM
UACAAACGUAGUGAUGUUACGUACUCUGAUACCAGACAAGUGUAAGUCCCUUGGCAGCAGUCAUUUUGCUUAUUAUUUUCUCAAA [JR_ExcTheophyA_Sub019],70.1 nM,88.1 nM,74.1 nM,86.4 nM,68.1 nM
UUGAGCCGGACCCAAGUCCGGCUCUGCGAGCGAGGACCGGUACGGCCGCCACUCGGUGCAGUGAUGUUGCAUGGCCGCAAGGCCG [#2 Exclusion - Tryptophan A Attempt #7 (HarryS)],439 nM,294 nM,377 nM,372 nM,460 nM
AGUGAUGUUGAGUUAUCUUAGUGAAGUGAUCGAGGACCGGUACGGCCGCCACUCGAGUGAUGAGUGAGUGAUGUUUGUUUAGGGA [llkmullin],695 nM,780 nM,897 nM,765 nM,413 nM
UGUCAUGGAAACAUGAACGUUGAUGUUCGACGAGGACCGGUACGGCCGCCACUCGAGUAAUAGUCAGUGAUGUUGACUAGUCUAA [KL-SSTryp-A form1],76.7 nM,107 nM,95 nM,112 nM,75.7 nM
GGCCCGGGCGCGGCCGCCACUCCCUCGUACCGAAAGGUAUGAUACCGAGUGAUGUUCGGUUGGAGGAGGACCGGGCGCCCGGGCC [#2 Exclusion - Tryptophan B Attempt #4 (HarryS)],140 nM,129 nM,105 nM,80.7 nM,152 nM
CGACUAUUUCGAUAGUCGAUAGACACGGAAGGAGCGGGAUUCGUCCCAGGUAGGUCGCCGUGAAGUUGAGUGAUGUUCAACGUGU [Arg A SS t13],160 nM,155 nM,155 nM,170 nM,147 nM
CUUGAUCGAGGAAGGAGCGGGCCGUCAUUGAGCGCAGUGAUGUUGCGGUCGACUAGUCGAGCCCAGGUAGGUCGCCUGGAGUAAG [Xeveis],202 nM,159 nM,173 nM,160 nM,192 nM
UGUGUUUACCUGACUCAGUGAUGUUGAGAAGGAGCGUGAGAAAGCACAGGUAGGUCGCUCAACCUAAAUUCAGGUGAGCACUAAA,241 nM,274 nM,238 nM,302 nM,204 nM
ACAUGAGUGAUGUUCAUGUGGAGCAGGGUACGAGGACCGGUACGGCCGCCACUCGAGAGUUAUGACGAGUUAAUGGCAACGAUGU [KL-Tryp-A8 #analogue],122 nM,90.2 nM,98.8 nM,96.3 nM,103 nM
AGUUCUUGCCGAAGGAGCGAGGCAGAGUGAUGUUCUGCAAGAGGUCGAAAGACCUCUCUGCCUCAGGUAGGUCGCGGCAUGAACA [Omei KL Arginine B Exc A v3],517 nM,239 nM,483 nM,356 nM,535 nM
CGUGAGGACCAGAGGUGAUGUAUAGUAUCGCGAGGACCGGUACGGCCGCCACUCGUGAAGAGAAAGGAGUGAUGUUCCGUAAUGG [Kazoo C10],343 nM,292 nM,304 nM,377 nM,110 nM
AAAUAAAGCAGUCAUCCAGUGAUGUUGGAAGGAGCGUGCGAAAGCACAGGUAGGUCGCCAAAACCUAAUAAUGGCUGCUAAAUAA [#SwitchBubble 2 #K4Early],170 nM,211 nM,176 nM,210 nM,141 nM
UGCGGUAGUGAUGUUACCUCAUUAUACUAGCGAGGACCGGUACGGCCGCCACUCGACUUCCUCCACGCCUAGGCCUCUACGUUCA [theeternabot_sameState_KL_Trp_A_36],136 nM,122 nM,137 nM,127 nM,98.2 nM
AAGUGUGUGGCGGCCGCCACUAGAAUCCAGUGAUGUUGGAGUUAUCAAAUAAAUGAUAAUCAACAUAGGACCGGGCCAUAUAGAA [Same State - Tryptophan B (Freestyle 4)],690 nM,430 nM,626 nM,523 nM,469 nM
AGUGGACAUGUCUAGAGUGAUGUUCUGGAUACCAGACACGAAAGUGUCCCUUGGCAGCCGGAGUGAUGUUCUGGAGUUCACUAAA [Omei KL Theo A Exc B v8],612 nM,296 nM,550 nM,485 nM,436 nM
GGGUGGGUGCGAGGAUAUGGAGUGAUGUUCCAAAAGAAAAGAAGAGAAGAGAAAGAGAGAAAGAAACCAGAAGGCGCGUCCGUCC,115 nM,123 nM,193 nM,238 nM,141 nM
AAGUAAUUAAUAAUUUAUAUAAGUUAAACAGAGGAUAUGCAUUAUUGCAGAAGGCUGAAUGCAGUGAUGUUGCAAUGAUUAUUUA [JR_SSFMNA_Sub001],18.9 nM,84.7 nM,58.3 nM,116 nM,60.8 nM

Sequence,apparent KD of K4 kissing-loop reporter (input ligand: FMN 200 uM),apparent KD of K4 kissing-loop reporter (input ligand: arginine 13.2 mM),apparent KD of K4 kissing-loop reporter (input ligand: none),apparent KD of K4 kissing-loop reporter [1],apparent KD of K4 kissing-loop reporter [2]
UUGCAUGCUAGGGAAACCUAGCAUGCAUGCCGAGGACCGGUACGGCCGCCACUCGAACGAGUGAUGUUCGUUGACCAAAAUAAAA,227 nM,468 nM,337 nM,635 nM,282 nM
GCAGUGAUGUUGCGCAGGUACAGUGGAGUGCGAGGACCGGUACGGCCGCCACUCGUACAGAACUAGCUAAUAUAUGGAUAGGUGA [VIII],287 nM,358 nM,315 nM,347 nM,280 nM
AGAAGAUAUCAAGAUACCAGCUCCCGGCCCAAAACCCAGAUACACGAGUGAUGUUCGUUCAGCCCUUGGCAGCUUGCCUAGUUCU [theeternabot_sameState_KL_Theo_B_6],94.4 nM,149 nM,125 nM,163 nM,89.4 nM
UGACUGGACUGAAGGAGCGAGCGAGACAAAGUCUCGAAAUCCUAGUGAUGUUAGGAAAUAACUCAGGUAGGUCGCAGUCUAGUCU [ArgBS 9 #SwitchBubble #StaticStem],181 nM,152 nM,175 nM,170 nM,173 nM
UGACUGGAUUGAAGGAGCGCUAAACUCCUAGUGAUGUUAGGGACACAAGACAAAGUCUUGAGGCAGGUAGGUCGCAAUCUAGUCU [FiskerMod 5 - Jieux - Same State - Arginine B],345 nM,253 nM,288 nM,310 nM,265 nM
CCGGAGGAAGUCGCUUUUCCUGUGGCAUAGAAGGAUAUCCAAUUAAGGAGAAGGUCUAUCUGCCUUAGUGAUGUUAGGAAGUAGA [theeternabot_sameState_KL_FMN_A_23],172 nM,89.1 nM,135 nM,162 nM,167 nM
AAUAUAGUGAUGUUAUAUAAGGAAAGAAGGCGAGGACCGGUACGGCCGCCACUCGAAAGGUGAGAAGGUGGCGAAGAAGAAAGAA [ExTryptoA.B],312 nM,280 nM,331 nM,433 nM,377 nM
GGUAGCAUGGCGGCCGCCACUUACUUCAAUAGGAGUGAUGUUCCUAUUACUAGUAGUGAAAUAAUAAGGACCGGGCCAUGCUACC,103 nM,87.9 nM,95.2 nM,82.8 nM,96.8 nM
AUUGUCGGAGUCUGUGCUGACUGACGAGCAAAGGAUAUGUUAUUAAACAGAAGGUUGUGCUGCUUAAGUGAUGUUUUUGGAGCUA [theeternabot_sameState_KL_FMN_A_26],308 nM,190 nM,239 nM,228 nM,216 nM
CGUGCCCGGCCGGAUACCAGUGACCCGCUGGGAACCGCGGGCCCAGAGUGAUGUUCGGGACACCCUUGGCAGCCGCCUGGGCUGC [#2 Same State - Theophylline B Attempt #14 (HarryS)],540 nM,395 nM,757 nM,375 nM,415 nM
UGACAUUGCUCAGAUACCAGACCUGAGGAUCACCCAGGUGCCAAAACGUACUAAAUAAAGGUCCCUUGGCAGCUGAGCAAUGUCU [TheoBX 13],63.6 nM,38.9 nM,27.3 nM,101 nM,65.4 nM
UAGCAUUUGCUCGAGUGAUGUUCGAGCGAAGGAGCGCGAGAAAUCGCAGGUAGGUCGCGCUCGAACUAUGAGCGAUCAUUUAUUA [Arg A Ex t2c],284 nM,217 nM,244 nM,463 nM,370 nM
GGGUGGCAGGCGGCCGCCACUCUGAGCACCCACUGAGUGAUGUUCGUGGCGUAAGCCUGUUCGUAGAGGACCGGGUUUGUUGUUC [Exclusion Tryptophan B GF 15],413 nM,162 nM,300 nM,281 nM,230 nM
CCAUUCUGUUACGAUACCAGUCAAAGAUAUUUGAUCAAUACCCUCGCCGAGUGAUGUUCGGACCCUUGGCAGCGUCUGGGACAGG [fdxxvmullin],1320 nM,437 nM,558 nM,427 nM,550 nM
AACUGUCGAGGACAACAUUACUGAGGUGAUACCAGCAUCGAAAGAUGCCCUUGGCAGCACCAACUUGCAGUGAUGUUGCAAGUAA [BrourdMod 9 - Jieux - Exclusion - Theophylline A],356 nM,324 nM,343 nM,473 nM,314 nM
GGUAGCGCUAGAGAUACCAGUCAUAUCGCUCUGGAGUGAUGUUCCGGAACGUGCGGAGAAGACCCUUGGCAGCUCAUGACGGUGU [Exclusion Theophylline B GF 4],210 nM,194 nM,224 nM,281 nM,214 nM
UGUCAUUGGUCUGAUACCAGUUGAUAAACUGGAGUGAUGUUCCAAGACGAGAAACUCGACAACCCUUGGCAGCAGACCGAUGACU [TheoBS 16 #SwitchBubble 13 #StaticStem],440 nM,295 nM,374 nM,772 nM,430 nM
AGGUUUUGAUUAGGAUAUGCACUGACGACGAGAAUAUAGUGAUGUUAUAUAAUAGGAAUUAGUAGAGUAGAAGGGAUUGAGGUUU [SSFMNB.W],261 nM,168 nM,277 nM,342 nM,190 nM
CGCGUGGGUUUGAGAGGGUUUGUGCGAAGUGAGGAUAUUUAGGGAGAAAGAAGGCACUAUAAAAUAUAGUGAUGUUAUAUAAGGG [SSFMNA.K],295 nM,226 nM,275 nM,225 nM,227 nM
GGCAGUGAUGUUGCCAGUGGCAGAUGCGAAGGAGCGCAGUGAGAUGCAGGUAGGUCGCGCAUUGAAAUUGCUGUCACUAAAAUGC [#2],363 nM,369 nM,371 nM,276 nM,234 nM
GCGCGUCAUGUUGGCGGGAACUAAGCCGAUACCAGCCGGGAAACCGGCCCUUGGCAGCGGCGCGCCGGAGUGAUGUUCCGACAGA [#2 Exclusion - Theophylline A Attempt #1 (HarryS)],226 nM,246 nM,254 nM,284 nM,164 nM
